Measurements from patent US20260008815A1, “CYCLIC PEPTIDE OR SALT THEREOF, AND USES THEREOF” (FUJIFILM Corporation, priority 2023, published 2026).
Bridge positions count the residues as written; N and C are the ends. Ends that are not written are not given here. COCH2 = acetyl group that carries the bridge

B1: cyclic peptide SEQ ID NO: 337 (peptide)
peptide: YCEKNYLDPEQYQYFIYFK(COCH2)Y
modifications: thioether 2-19; not fully specified; printed as Y-(C)-EKNYLDPEQYQYFIYF-(K(acetyl))-Y
B2: cyclic peptide SEQ ID NO: 343 (peptide)
peptide: YCEENYLDPEQYKYFIYFK(COCH2)Y
modifications: thioether 2-19; not fully specified; printed as Y-(C)-EENYLDPEQYKYFIYF-(K(acetyl))-Y
B3: cyclic peptide SEQ ID NO: 341 (peptide)
peptide: YCEENYLDKEQYQYFIYFK(COCH2)Y
modifications: thioether 2-19; not fully specified; printed as Y-(C)-EENYLDKEQYQYFIYF-(K(acetyl))-Y
B4: cyclic peptide SEQ ID NO: 344 (peptide)
peptide: YCEENYLDPEQYQYFKYFK(COCH2)Y
modifications: thioether 2-19; not fully specified; printed as Y-(C)-EENYLDPEQYQYFKYF-(K(acetyl))-Y
B5: cyclic peptide SEQ ID NO: 338 (peptide)
peptide: YCEENKLDPEQYQYFIYFK(COCH2)Y
modifications: thioether 2-19; not fully specified; printed as Y-(C)-EENKLDPEQYQYFIYF-(K(acetyl))-Y
B6: cyclic peptide SEQ ID NO: 345 (peptide)
peptide: YCEENYLDPEQYQYFIKFK(COCH2)Y
modifications: thioether 2-19; not fully specified; printed as Y-(C)-EENYLDPEQYQYFIKF-(K(acetyl))-Y
B7: cyclic peptide SEQ ID NO: 340 (peptide)
peptide: YCEENYLKPEQYQYFIYFK(COCH2)Y
modifications: thioether 2-19; not fully specified; printed as Y-(C)-EENYLKPEQYQYFIYF-(K(acetyl))-Y
B8: cyclic peptide SEQ ID NO: 342 (peptide)
peptide: YCEENYLDPKQYQYFIYFK(COCH2)Y
modifications: thioether 2-19; not fully specified; printed as Y-(C)-EENYLDPKQYQYFIYF-(K(acetyl))-Y
B9: cyclic peptide SEQ ID NO: 346 (peptide)
peptide: YCEENYLDPEQYQYFIYFK(COCH2)K
modifications: thioether 2-19; not fully specified; printed as Y-(C)-EENYLDPEQYQYFIYF-(K(acetyl))-K
B10: cyclic peptide SEQ ID NO: 339 (peptide)
peptide: YCEENYKDPEQYQYFIYFK(COCH2)Y
modifications: thioether 2-19; not fully specified; printed as Y-(C)-EENYKDPEQYQYFIYF-(K(acetyl))-Y

Molecular target: T1, Recombinant Human FGFR2 alpha (IIIc) Fc Chimera Protein, CF (R&D systems, 712-FR-050) (human, UniProt P21802 22-377)
T1 construct: bought; not shown: Fc part of the chimera
T1 sequence (P21802 22-377, change not shown): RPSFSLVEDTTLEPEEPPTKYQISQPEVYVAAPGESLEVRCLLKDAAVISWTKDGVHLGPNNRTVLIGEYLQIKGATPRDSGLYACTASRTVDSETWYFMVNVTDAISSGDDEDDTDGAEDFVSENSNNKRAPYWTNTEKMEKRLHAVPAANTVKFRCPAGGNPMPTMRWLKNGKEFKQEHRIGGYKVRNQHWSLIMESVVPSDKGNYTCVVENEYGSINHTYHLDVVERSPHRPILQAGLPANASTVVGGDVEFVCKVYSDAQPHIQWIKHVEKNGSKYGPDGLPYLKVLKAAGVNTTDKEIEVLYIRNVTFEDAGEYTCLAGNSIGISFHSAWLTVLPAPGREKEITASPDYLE
Assay: ELISA on plate-bound FGFR2-Fc
How it was run: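 Peptide binding scored by category from dose-response of background-corrected luminescence (FGFR-coated minus uncoated wells). Detection via anti-Myc antibody (2 h, room temperature) after 3 h peptide incubation on wells coated with 5 ng FGFR2 alpha (IIIc)-Fc.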

ELISA luminescence signal at 10 nmol/L peptide, relative to SEQ ID NO: 47 (=1) | Binder
≥ 0.7 ratio | B1
≥ 0.7 ratio | YCEMNYLDPEQYQYFIYFK(COCH2)Y (thioether 2-19) [cyclic peptide SEQ ID NO: 349]
≥ 0.7 ratio | B2
≥ 0.7 ratio | MCEENYLDPEQYQYFIYFK(COCH2)Y (thioether 2-19) [cyclic peptide SEQ ID NO: 347]
≥ 0.7 ratio | YCMENYLDPEQYQYFIYFK(COCH2)Y (thioether 2-19) [cyclic peptide SEQ ID NO: 348]
≥ 0.7 ratio | YCEENMLDPEQYQYFIYFK(COCH2)Y (thioether 2-19) [cyclic peptide SEQ ID NO: 350]
≥ 0.7 ratio | B3
≥ 0.7 ratio | B4
0.1 to 0.5 ratio | B5
≥ 0.7 ratio | B6
0.1 to 0.5 ratio | B7
≥ 0.7 ratio | B8
≥ 0.7 ratio | B9
≥ 0.7 ratio | B10
